Substitutions are numbered along the chain they refer to.
Assays:
[1] = molecular target: T1, human sodium-dependent phosphate transporter 2B (NaPi2b) (human, UniProt O95436 1-690); assay: cell-based or functional assay
T1 sequence: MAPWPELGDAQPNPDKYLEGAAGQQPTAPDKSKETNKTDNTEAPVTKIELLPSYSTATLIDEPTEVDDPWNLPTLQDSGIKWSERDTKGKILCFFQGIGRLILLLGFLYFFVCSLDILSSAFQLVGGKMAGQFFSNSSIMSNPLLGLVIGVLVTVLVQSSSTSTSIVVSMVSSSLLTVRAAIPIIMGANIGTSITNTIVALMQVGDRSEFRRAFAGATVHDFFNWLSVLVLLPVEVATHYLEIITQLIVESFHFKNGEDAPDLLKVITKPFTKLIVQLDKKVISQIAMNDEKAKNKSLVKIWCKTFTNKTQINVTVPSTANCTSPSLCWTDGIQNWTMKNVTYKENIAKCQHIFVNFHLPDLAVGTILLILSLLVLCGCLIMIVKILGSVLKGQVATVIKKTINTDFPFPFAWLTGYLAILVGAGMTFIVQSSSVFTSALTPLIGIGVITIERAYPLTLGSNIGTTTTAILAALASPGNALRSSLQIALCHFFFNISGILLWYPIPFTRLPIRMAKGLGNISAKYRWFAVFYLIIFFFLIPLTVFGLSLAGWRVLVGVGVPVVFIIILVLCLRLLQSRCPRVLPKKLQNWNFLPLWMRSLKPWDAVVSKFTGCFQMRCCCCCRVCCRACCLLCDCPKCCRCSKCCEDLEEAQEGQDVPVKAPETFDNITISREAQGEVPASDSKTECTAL

cynomolgus monkey NaPi2b = molecular target: T2, cynomolgus monkey NaPi2b (cynomolgus monkey, UniProt O95436 1-690 (human entry)); assay: flow cytometry, HEK293-6e cells transfected with cynomolgus NaPi2b
T2 construct: also called Cyno NaPi2b; Cy NaPi2b
T2 chain: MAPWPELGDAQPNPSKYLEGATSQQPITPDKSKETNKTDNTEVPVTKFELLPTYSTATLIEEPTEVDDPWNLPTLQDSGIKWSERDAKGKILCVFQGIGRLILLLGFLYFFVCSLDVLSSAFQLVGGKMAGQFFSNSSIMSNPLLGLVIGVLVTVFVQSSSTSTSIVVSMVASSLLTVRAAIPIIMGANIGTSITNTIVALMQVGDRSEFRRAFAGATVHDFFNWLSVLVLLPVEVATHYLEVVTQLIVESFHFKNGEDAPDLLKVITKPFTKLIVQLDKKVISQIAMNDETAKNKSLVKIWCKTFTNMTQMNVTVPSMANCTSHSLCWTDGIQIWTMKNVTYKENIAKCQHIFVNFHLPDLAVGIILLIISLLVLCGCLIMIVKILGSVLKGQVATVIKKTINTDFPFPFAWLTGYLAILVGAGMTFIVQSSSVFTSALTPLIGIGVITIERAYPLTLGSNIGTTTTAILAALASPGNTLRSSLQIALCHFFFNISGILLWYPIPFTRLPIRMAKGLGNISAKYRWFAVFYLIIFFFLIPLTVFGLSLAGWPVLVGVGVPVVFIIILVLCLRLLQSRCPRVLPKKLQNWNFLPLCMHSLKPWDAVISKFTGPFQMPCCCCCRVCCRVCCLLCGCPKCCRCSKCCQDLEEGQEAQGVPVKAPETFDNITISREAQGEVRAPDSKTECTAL

[2] = molecular target: T3, KLH (Sigma-Aldrich, H8283); assay: NS-ELISA, plate coated with KLH, mAb at 100 nM; ratio of signal to a buffer well
T3 construct: Coating protein of the non-specific ELISA (NS-ELISA)
Procedure: NS-ELISA was used to measure the propensity of the antibodies to bind to a range of biomolecules to emulate the undesirable non-specific interactions to biological matrices in vivo as described below.
NS-ELISA was carried out in Corning@ 96-well EIA/RIA Easy Wash™ Clear Flat Bottom Polystyrene High Bind Microplate coated overnight at 4° C. with 50 μL of Heparin (Sigma, H3149) diluted with 50 mM sodium carbonate pH 9.6 to a final concentration of 250 μg/mL. The plate was incubated for 2 days at room temperature, wells that were coated with heparin were not covered to allow air dry. […] 50 μL each of insulin, KLH, dsDNA and ssDNA were added to a 96 well plate, followed by the incubation at 37° C. for 2 h. The coating materials were removed, and the plate was blocked with 200 μL of Gibco™ PBS pH7.4, 0.1% Tween®20, and incubated for 1 h at room temperature with shaking at 200 rpm. The plate was washed 3 times with Gibco™ PBS pH7.4, 0.1% Tween 20. 50 μL of each mAb at 100 nM (15 mg/mL) in Gibco™ PBS pH 7.4, 0.1% Tween®20 was added in duplicate to the wells and incubated for 1 h at room temperature with shaking at 200 rpm. […] Plates were incubated for 1 h at room temperature, with shaking at 200 rpm. The plate was washed three times with Gibco™ PBS pH7.4, 0.1% Tween 20, and 100 μL of TMB substrate (Cell Signaling Technology©, 7004P6) added to each well. […] Binding scores were calculated as the ratio of the ELISA signal of the antibody to the signal of a well containing buffer instead of the primary antibody. The cutoffs considered for each binding molecule (ssDNA. KLH, Insulin, dsDNA and Heparin) were internally calculated, based on the average of Zymeworks Inc. produced antibodies and antibodies benchmarks published in the literature.

[3] = molecular target: T1, human sodium-dependent phosphate …; assay: flow cytometry on IGROV-1 cells (endogenous NaPi2b), 24 h at 4 C, anti-human IgG Fc AF647, APC-A GeoMean
Procedure: Briefly, cells were seeded at 50,000 cells/well in conical-bottom 96-well plates and treated with test antibody for 24 hours at 4° C. to prevent internalization. […] Following incubation and washing, fluorescence was detected by flow cytometry on a BD LSRFortessa™ Cell Analyzer (BD Biosciences, Franklin Lake, NJ) with 1,000 minimum events collected per well.

[4] = molecular target: T4, human sodium-dependent phosphate transporter 2B (NaPi2b) (human, UniProt O95436 1-690); assay: flow cytometry on HEK293-6e cells transfected with human NaPi2b
T4 construct: Multi-pass membrane transporter; It stood on HEK293-6e cells transfected with pTT5-huNaPi2b, or endogenously on the tumour cell lines IGROV-1, OVCAR-3, HCC-78, TOV-21G and NCI-H441; also called Hu NaPi2b; hNaPi2b
T4 sequence: T1 sequence
Procedure: Following transfection, cells were seeded at 50,000 cells/well in conical-bottom 96-well plates and treated with test antibody or antibody-drug conjugate for 24 hours at 4° C. to prevent internalization. […] Following incubation and washing, fluorescence was detected by flow cytometry on a BD LSRFortessa™ Cell Analyzer (BD Biosciences, Franklin Lake, NJ) with 1,000 minimum events collected per well.

[5] = molecular target: T1, human sodium-dependent phosphate …; assay: KinExA, IGROV-1 cells, monovalent format
Procedure: The cell-binding assay was set up using the antibody constructs or variants as constant binding partner at two different concentrations of 50 μM and 500 μM. For the titration curve with antibody variants fixed at 50 μM, at least 10 million IGROV-1 cells were used as titrant. For the titration curve with antibody variants fixed at 500 μM, at least 5 million cells were used as titrant. The antibody variants and cells were mixed in PBS pH 7.4, 1 mg/mL BSA, 0.2% NaN₃ and incubated at 4° C. for 7 days with gentle rotation until equilibrium was reached. After incubation, the mixture of antibody variants and cells was centrifuged to separate the cells from the unbound free antibody variants.
N-curve analysis was used to calculate the affinity and receptor expression level with the concentrations of antibody variant as reference point.

[6] = molecular target: T1, human sodium-dependent phosphate …; assay: flow cytometry, IGROV-1, HCC-78 and H441 cells

B1: v29456 humanized anti-NaPi2b antibody (antibody, human IgG1, kappa)
heavy: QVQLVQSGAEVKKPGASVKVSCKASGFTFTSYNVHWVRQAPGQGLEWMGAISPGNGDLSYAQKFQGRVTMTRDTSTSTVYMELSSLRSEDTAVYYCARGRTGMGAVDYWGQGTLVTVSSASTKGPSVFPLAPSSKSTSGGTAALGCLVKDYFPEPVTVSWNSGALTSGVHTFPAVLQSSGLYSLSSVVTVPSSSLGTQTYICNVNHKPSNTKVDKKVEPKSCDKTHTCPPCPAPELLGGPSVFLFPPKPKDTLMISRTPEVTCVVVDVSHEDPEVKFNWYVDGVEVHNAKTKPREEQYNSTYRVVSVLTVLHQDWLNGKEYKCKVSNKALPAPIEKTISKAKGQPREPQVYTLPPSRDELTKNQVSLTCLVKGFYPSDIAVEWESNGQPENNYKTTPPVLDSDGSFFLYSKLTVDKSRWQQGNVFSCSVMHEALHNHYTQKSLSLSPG
light: DVQMTQSPSSLSASVGDRVTITCRASQDVYSYLNWYQQKPGKAVKLLIYYTSRLQSGVPSRFSGSGSGTDYTLTISSLQPEDFATYYCQQYNIFPWTFGQGTKLEIKRTVAAPSVFIFPPSDEQLKSGTASVVCLLNNFYPREAKVQWKVDNALQSGNSQESVTEQDSKDSTYSLSSTLTLSKADYEKHKVYACEVTHQGLSSPVTKSFNRGEC
notes: Full-size IgG1/kappa; also called H1L2
B1 was tested, and the “Internalized Fluorescence Fold-Over Palivizumab, HCC-78, 5 hrs, 10 nM” value [1] was 25.3 fold, the “Internalized Fluorescence Fold-Over Palivizumab, HCC-78, 24 hrs, 10 nM” value [1] was 59.9 fold and the “Internalized Fluorescence Fold-Over Palivizumab, NCI-H441, 5 hrs, 10 nM” value [1] was 2.4 fold. For the same binder, the “Internalized Fluorescence Fold-Over Palivizumab, NCI-H441, 24 hrs, 10 nM” value [1] was 4 fold, the “fold lower apparent Kd than v18992 (MX35)” value (cynomolgus monkey NaPi2b) was 10 fold and the “fold lower apparent Kd than v18993 (lifastuzumab)” value (cynomolgus monkey NaPi2b) was 2 fold. The NS-ELISA binding score [2] was 1.37.

B2: v18992 (MX35)-DL2 antibody-drug conjugate (antibody, human IgG1, kappa)
heavy 1: GQVQLVQSGAEVVKPGASVKMSCKASGYTFTGYNIHWVKQAPGQGLEWIGAIYPGNGDTSYKQKFRGRATLTADTSTSTVYMELSSLRSEDSAVYYCARGETARATFAYWGQGTLVTVSSASTKGPSVFPLAPSSKSTSGGTAALGCLVKDYFPEPVTVSWNSGALTSGVHTFPAVLQSSGLYSLSSVVTVPSSSLGTQTYICNVNHKPSNTKVDKKVEPKSCDKTHTCPPCPAPELLGGPSVFLFPPKPKDTLMISRTPEVTCVVVDVSHEDPEVKFNWYVDGVEVHNAKTKPREEQYNSTYRVVSVLTVLHQDWLNGKEYKCKVSNKALPAPIEKTISKAKGQPREPQVYVYPPSRDELTKNQVSLTCLVKGFYPSDIAVEWESNGQPENNYKTTPPVLDSDGSFALVSKLTVDKSRWQQGNVFSCSVMHEALHNHYTQKSLSLSPG
heavy 2: not shown
light: GDIQMTQSPSSLSASVGDRVTITCSASQDIGNFLNWYQQKPGKTVKVLIYYTSSLYSGVPSRFSGSGSGTDYTLTISSLQPEDFATYYCQQYSKLPLTFGQGTKLELKRTVAAPSVFIFPPSDEQLKSGTASVVCLLNNFYPREAKVQWKVDNALQSGNSQESVTEQDSKDSTYSLSSTLTLSKADYEKHKVYACEVTHQGLSSPVTKSFNRGEC
modifications: maleimide functionalized auristatin drug linker (DL2); sites and DAR not stated
notes: also called MX35-DL2 ADC
For B2, the “EC50 (read off the curve)” value [3] was about 1 nM.

B3: humanized anti-NaPi2b antibody variant v38591 (antibody, human IgG1, kappa)
heavy: not shown
light: B1 light
notes: Human IgG1/kappa full-size antibody; It is identical to v29456 except that the heavy chains include a C-terminal lysine; also called v38591 (H1L2)
In the case of B3, the Bmax [4] is reported as 65.

B4: v36123, monovalent format of humanized antibody variant 29452 (antibody, V domains shown)
VH: QVQLVQSGAEVKKPGASVKVSCKASGFTFTSYNVHWVRQAPGQGLEWMGAISPGNGDLSYAQKFQGRVTMTRDTSTSTVYMELSSLRSEDTAVYYCARGRTGMGAVDYWGQGTLVTVSS
VL: DVQMTQSPSSLSASVGDRVTITCRASQDVYSYLNWYQQKPGKAVKLLIYYTSRLQSGVPSRFSGSGSGTDYTLTISSLQPEDIATYYCQQYNIFPWTFGQGTKLEIK
notes: also called VH1/VL3
In the case of B4, the “fold lower binding affinity than chimeric parental antibody construct” value [5] is reported as about 2 fold.

B5: v36124, monovalent format of humanized antibody variant 29456 (antibody, V domains shown)
VH: B4 VH
VL: B4 VL with I83F
notes: also called VH1/VL2
B5 was tested, and the “fold lower binding affinity than chimeric parental antibody construct” value [5] was about 2 fold.

B6: v21995 (palivizumab), anti-RSV negative control antibody (antibody, human IgG1, kappa, V domains shown)
VH: QVTLRESGPALVKPTQTLTLTCTFSGFSLSTSGMSVGWIRQPPGKALEWLADIWWDDKKDYNPSLKSRLTISKDTSKNQVVLKVTNMDPADTATYYCARSMITNWYFDVWGAGTTVTVSS
VL: DIQMTQSPSTLSASVGDRVTITCKSQLSVGYMHWYQQKPGKAPKLLIYDTSKLASGVPSRFSGSGSGTEFTLTISSLQPDDFATYYCFQGSGYPFTFGGGTKLEIKR
B6: no binding [6].

From patent US20250235548A1 (Zymeworks, published 2025)
